The source of these data is PMC12017343, “Extended repertoire of CXC chemokines acting as agonists and antagonists of the human and murine atypical chemokine receptor ACKR2” (Journal of Leukocyte Biology, 2025).

T1: mouse ACKR2 N-terminally fused with the NanoLuc (mouse, UniProt O08707 1-378)
T1 construct: atypical chemokine receptor 2 (ACKR2), mouse; also called mACKR2; NanoLuc-ACKR2; source: HEK293T, stably expressing (pIRES-puromycin vector), on cells; not shown: NanoLuc, N-terminal, kept
T1 sequence (looked up): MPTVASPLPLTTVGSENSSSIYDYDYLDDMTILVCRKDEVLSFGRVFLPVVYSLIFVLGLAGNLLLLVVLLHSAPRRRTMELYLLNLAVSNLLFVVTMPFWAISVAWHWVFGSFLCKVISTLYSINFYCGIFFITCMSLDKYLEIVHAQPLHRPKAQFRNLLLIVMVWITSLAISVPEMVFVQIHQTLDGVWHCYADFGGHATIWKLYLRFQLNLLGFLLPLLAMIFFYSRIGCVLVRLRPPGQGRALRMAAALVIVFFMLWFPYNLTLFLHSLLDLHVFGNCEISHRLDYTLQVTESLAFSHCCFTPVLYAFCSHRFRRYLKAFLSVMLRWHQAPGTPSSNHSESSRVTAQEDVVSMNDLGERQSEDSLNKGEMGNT

B1: mouse CXCL10 (ligand, UniProt P17515 22-98, looked up)
chain: IPLARTVRCNCIHIDDGPVRMRAIGKLEIIPASLSCPRVEIIATMKKNDEQRCLNPESKTIKNLMKAFSQKRSKRAP
notes: CXCL10, mouse, native chemokine; source: bought: Protein Foundry
B2: mouse CXCL11 (ligand, UniProt Q9JHH5 22-100, looked up)
chain: FLMFKQGRCLCIGPGMKAVKMAEIEKASVIYPSNGCDKVEVIVTMKAHKRQRCLDPRSKQARLIMQAIEKKNFLRRQNM
notes: CXCL11, mouse, native chemokine; source: bought: Protein Foundry
B3: mouse CXCL5 (ligand)
chain: APSSVIAATELRCVCLTVTPKINPKLIANLEVIPAGPQCPTVEVIAKLKNQKEVCLDPEAPVIKKIIQKILGSDKKKAKRNALAVERTASVQ
modifications: The paper prints no limits. The full-length mature chain after the signal peptide was taken for the 'native' chemokine (Protein Foundry); the commercial form could instead be GCP-2(1-78), 41-118, or …

The target of the test is T1, mouse ACKR2 N-terminally fused with the …. Nature of the test: FRET or BRET; NanoBRET competition binding, concentration-response: increasing chemokine (highest 300 nM) against LIH222-AZ594 (5 nM for human, 10 nM for mouse) on HEK293T cells expressing NanoLuc-ACKR2; 2 h on ice. The settings on record: one partner purified. A general note: In BRET a luciferase serves as donor, and the signal depends on an acceptor being close.
By pIC50 is commonly meant the IC50 on a negative log10 scale, so that one unit is a factor of ten. A high value points to a small IC50. With B1, the pIC50 was at most 8.01.
To B2 belongs at most 7.04; to B3, at most 8.51.
